Source: paper doi:10.1101/2020.08.24.264606 (bioRxiv, 2020)

Target: CIP2A(1-560)-V5 (human, UniProt Q8TCG1-1 1-560)
Assay: pull-down

B1: GST-NOCIVA (CIP2A 1-545 + 13 aa peptide) (natural protein)
chain: not shown
  binding result: binds
